{"source": "the RNAGym collection of RNA variant scans (doi:10.7554/elife.80360)", "parents": {"B1": {"name": "CPEB3 Ribozyme (parent)", "chain": "GGGGGCCACAGCAGAAGCGUUCACGUCGCGGCCCCUGUCAGAUUCUGGUGAAUCUGCGAAUUCUGCUGU"}}}
{"variants_of": "B1", "experiment": "self-cleavage, relative activity (ratio to wild type); higher = more cleavage; co-transcriptional"}
{"variant": "AGGGGCCACAGCAGAAGCGUUCACGUCGCGGCCCCUGUCAGAUUCUGGUGAAUCUGCGAAAUCUGCUGU", "self-cleavage": 0.0967}
{"variant": "AGGGGCCACAGCAGAAGCGUUCACGUCGCGGCCCCUGUCAGAUUCUGGUGAAUCUGCGAAGUCUGCUGU", "self-cleavage": 0.15}
{"variant": "AGGGGCCACAGCAGAAGCGUUCACGUCGCGGCCCCUGUCAGAUUCUGGUGAAUCUGCGAAUCCUGCUGU", "self-cleavage": 0.033}
{"variant": "AGGGGCCACAGCAGAAGCGUUCACGUCGCGGCCCCUGUCAGAUUCUGGUGAAUCUGCGAAUGCUGCUGU", "self-cleavage": 0.0371}
{"variant": "AGGGGCCACAGCAGAAGCGUUCACGUCGCGGCCCCUGUCAGAUUCUGGUGAAUCUGCGAAUUCCGCUGU", "self-cleavage": 0.0762}
{"variant": "AGGGGCCACAGCAGAAGCGUUCACGUCGCGGCCCCUGUCAGAUUCUGGUGAAUCUGCGAAUUCUGCAGU", "self-cleavage": 0.121}
{"variant": "AGGGGCCACAGCAGAAGCGUUCACGUCGCGGCCCCUGUCAGAUUCUGGUGAAUCUGCGAAUUCUGCGGU", "self-cleavage": 0.0812}
{"variant": "CGGGGCCGCAGCAGAAGCGUUCACGUCGCGGCCCCUGUCAGAUUCUGGUGAAUCUGCGAAUUCUGCUGU", "self-cleavage": 0.205}
{"variant": "CGGGGCCACCGCAGAAGCGUUCACGUCGCGGCCCCUGUCAGAUUCUGGUGAAUCUGCGAAUUCUGCUGU", "self-cleavage": 0.23}
{"variant": "CGGGGCCACUGCAGAAGCGUUCACGUCGCGGCCCCUGUCAGAUUCUGGUGAAUCUGCGAAUUCUGCUGU", "self-cleavage": 0.209}
{"variant": "CGGGGCCACAGCAGUAGCGUUCACGUCGCGGCCCCUGUCAGAUUCUGGUGAAUCUGCGAAUUCUGCUGU", "self-cleavage": 0.229}
{"variant": "CGGGGCCACAGCAGACGCGUUCACGUCGCGGCCCCUGUCAGAUUCUGGUGAAUCUGCGAAUUCUGCUGU", "self-cleavage": 0.161}
{"variant": "CGGGGCCACAGCAGAAGCGUUCACGUCGCGGCCCCUGUCUGAUUCUGGUGAAUCUGCGAAUUCUGCUGU", "self-cleavage": 0.195}
{"variant": "CGGGGCCACAGCAGAAGCGUUCACGUCGCGGCCCCUGUCAGUUUCUGGUGAAUCUGCGAAUUCUGCUGU", "self-cleavage": 0.2}
{"variant": "CGGGGCCACAGCAGAAGCGUUCACGUCGCGGCCCCUGUCAGAUUCUGGUGGAUCUGCGAAUUCUGCUGU", "self-cleavage": 0.18}
{"variant": "CGGGGCCACAGCAGAAGCGUUCACGUCGCGGCCCCUGUCAGAUUCUGGUGAAUCUGCGAUUUCUGCUGU", "self-cleavage": 0.179}
{"variant": "CGGGGCUACAGCAGAAGCGUUCACGUCGCGGCCCCUGUCAGAUUCUGGUGAAUCUGCGAAUUCUGCUGU", "self-cleavage": 0.172}
{"variant": "CGGGGCCAAAGCAGAAGCGUUCACGUCGCGGCCCCUGUCAGAUUCUGGUGAAUCUGCGAAUUCUGCUGU", "self-cleavage": 0.251}
{"variant": "CGGGGCCACAGCAGAAGAGUUCACGUCGCGGCCCCUGUCAGAUUCUGGUGAAUCUGCGAAUUCUGCUGU", "self-cleavage": 0.035}
{"variant": "CGGGGCCACAGCAGAAGGGUUCACGUCGCGGCCCCUGUCAGAUUCUGGUGAAUCUGCGAAUUCUGCUGU", "self-cleavage": 0.0551}
{"variant": "CGGGGCCACAGCAGAAGUGUUCACGUCGCGGCCCCUGUCAGAUUCUGGUGAAUCUGCGAAUUCUGCUGU", "self-cleavage": 0.167}
{"variant": "CGGGGCCACAGCAGAAGCGUUUACGUCGCGGCCCCUGUCAGAUUCUGGUGAAUCUGCGAAUUCUGCUGU", "self-cleavage": 0.0706}
{"variant": "CGGGGCCACAGCAGAAGCGUUCAGGUCGCGGCCCCUGUCAGAUUCUGGUGAAUCUGCGAAUUCUGCUGU", "self-cleavage": 0.118}
{"variant": "CGGGGCCACAGCAGAAGCGUUCAUGUCGCGGCCCCUGUCAGAUUCUGGUGAAUCUGCGAAUUCUGCUGU", "self-cleavage": 0.203}
{"variant": "CGGGGCCACAGCAGAAGCGUUCACGUCGAGGCCCCUGUCAGAUUCUGGUGAAUCUGCGAAUUCUGCUGU", "self-cleavage": 0.168}
{"variant": "CGGGGCCACAGCAGAAGCGUUCACGUCGCGGGCCCUGUCAGAUUCUGGUGAAUCUGCGAAUUCUGCUGU", "self-cleavage": 0.148}
{"variant": "CGGGGCCACAGCAGAAGCGUUCACGUCGCGGCCCCUGUAAGAUUCUGGUGAAUCUGCGAAUUCUGCUGU", "self-cleavage": 0.174}
{"variant": "CGGGGCCACAGCAGAAGCGUUCACGUCGCGGCCCCUGUCAGAUUCUGGUGAAUAUGCGAAUUCUGCUGU", "self-cleavage": 0.272}
{"variant": "CGGGGCCACAGCAGAAGCGUUCACGUCGCGGCCCCUGUCAGAUUCUGGUGAAUUUGCGAAUUCUGCUGU", "self-cleavage": 0.237}
{"variant": "CGGGGCCACAGCAGAAGCGUUCACGUCGCGGCCCCUGUCAGAUUCUGGUGAAUCUGUGAAUUCUGCUGU", "self-cleavage": 0.07}
{"variant": "CGGGGCCACAGCAGAAGCGUUCACGUCGCGGCCCCUGUCAGAUUCUGGUGAAUCUGCGAAUUGUGCUGU", "self-cleavage": 0.201}
{"variant": "CGGGGCCACAGCAGAAGCGUUCACGUCGCGGCCCCUGUCAGAUUCUGGUGAAUCUGCGAAUUCUGGUGU", "self-cleavage": 0.248}
{"variant": "CCGGGCCACAGCAGAAGCGUUCACGUCGCGGCCCCUGUCAGAUUCUGGUGAAUCUGCGAAUUCUGCUGU", "self-cleavage": 0.67}
{"variant": "CUGGGCCACAGCAGAAGCGUUCACGUCGCGGCCCCUGUCAGAUUCUGGUGAAUCUGCGAAUUCUGCUGU", "self-cleavage": 0.142}
{"variant": "CGCGGCCACAGCAGAAGCGUUCACGUCGCGGCCCCUGUCAGAUUCUGGUGAAUCUGCGAAUUCUGCUGU", "self-cleavage": 0.0906}
{"variant": "CGGUGCCACAGCAGAAGCGUUCACGUCGCGGCCCCUGUCAGAUUCUGGUGAAUCUGCGAAUUCUGCUGU", "self-cleavage": 0.205}
{"variant": "CGGGACCACAGCAGAAGCGUUCACGUCGCGGCCCCUGUCAGAUUCUGGUGAAUCUGCGAAUUCUGCUGU", "self-cleavage": 0.272}
{"variant": "CGGGCCCACAGCAGAAGCGUUCACGUCGCGGCCCCUGUCAGAUUCUGGUGAAUCUGCGAAUUCUGCUGU", "self-cleavage": 0.15}
{"variant": "CGGGGCCACAGCACAAGCGUUCACGUCGCGGCCCCUGUCAGAUUCUGGUGAAUCUGCGAAUUCUGCUGU", "self-cleavage": 0.152}
